# In US12139520B2 (priority 2020, dated 2024):
# Bridge positions count the residues as written; N and C are the ends. Square brackets hold non-standard residues; d marks the D form. Ends that are not written are not given here. Hyp = O=C(O)[C@@H]1C[C@@H](O)CN1
# T1: hAMY3R (human, UniProt P30988)
# T1 sequence 1: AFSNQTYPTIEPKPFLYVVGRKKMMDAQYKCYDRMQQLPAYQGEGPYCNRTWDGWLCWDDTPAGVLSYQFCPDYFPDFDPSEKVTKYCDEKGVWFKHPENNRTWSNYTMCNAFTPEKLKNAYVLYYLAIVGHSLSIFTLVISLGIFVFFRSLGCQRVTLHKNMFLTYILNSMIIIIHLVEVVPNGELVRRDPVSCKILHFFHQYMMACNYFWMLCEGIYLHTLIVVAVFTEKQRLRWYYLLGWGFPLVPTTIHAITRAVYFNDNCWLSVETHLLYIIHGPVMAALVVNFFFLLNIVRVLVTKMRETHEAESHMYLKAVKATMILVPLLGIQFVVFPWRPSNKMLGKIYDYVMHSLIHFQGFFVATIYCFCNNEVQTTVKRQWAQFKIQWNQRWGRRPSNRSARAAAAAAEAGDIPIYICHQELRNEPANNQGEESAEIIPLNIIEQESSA
# T1 sequence 2: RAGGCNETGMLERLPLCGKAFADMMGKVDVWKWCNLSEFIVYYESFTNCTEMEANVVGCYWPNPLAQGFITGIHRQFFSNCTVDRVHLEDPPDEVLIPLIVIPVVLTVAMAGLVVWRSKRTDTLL
# Target: T1, hAMY3R
# Experiment: cell-based or functional assay
row,Binder,hAMY3R EC50 (cAMP) [nM]
1,GCRFGTCTVQWLAHQIYQFTDKDKDNVAPRSNVSPQGY [SEQ ID NO: 345],0.051
2,GCRTGTCTVQWLAHQIYQFTDKDKDNVAPRTNVGPNGY [SEQ ID NO: 332],0.007
3,GCRFGTCTVQWLAHQIYQFTDKDKDNVAPRTKIGPNG[Hyp]-NH2 (disulfide 2-7 (inferred); ends not checked) [SEQ ID NO: 343],0.017
4,KCNTATCTVQWLAHQIYQFDKDKDNVAPPTNVGSNG[Hyp]-NH2 (disulfide 2-7 (inferred); ends not checked) [SEQ ID NO: 329],0.032
5,GCRTGTCTVQWLAHQIYQFTDKDKDNVAPRTNIGPQG[Hyp]-NH2 (disulfide 2-7 (inferred); ends not checked) [SEQ ID NO: 341],0.029
6,GCRTGTCTVQWLAHQIYQFTDKDKDNVAPRSKVGPQGY [SEQ ID NO: 344],0.121
7,GCRTGTCTVQWLAHQIYQFTDKDKDNVAPRTNIGPNGY [SEQ ID NO: 348],0.041
8,GCRTGTCTVQWLAHQIYQFTDKDKDNVAPRSNVGPQG[Hyp]-NH2 (disulfide 2-7 (inferred); ends not checked) [SEQ ID NO: 342],0.054
9,KCNTATCTVQWLAHQIYQFTDKDKDNVAPRTEVGSNGY [SEQ ID NO: 334],0.013
10,KCNTATCTVQRLAHQIYQFTDKDKDNVAPRTKVGSNGY [SEQ ID NO: 34],0.009
11,KCNTATCTVQWLAHQIYQFTDKDKDNVAPTNVGSNG[Hyp]-NH2 (disulfide 2-7 (inferred); ends not checked) [SEQ ID NO: 319],0.018
12,KCNTATCTVQWLAHQIYQFTDKDKDAVAPPTNVGSNG[Hyp]-NH2 (disulfide 2-7 (inferred); ends not checked) [SEQ ID NO: 324],0.028
13,GCRFGTCTVQWLAHQIYQFTDKDKDNVAPRTKIGPQG[Hyp]-NH2 (disulfide 2-7 (inferred); ends not checked) [SEQ ID NO: 336],0.029
14,KCNTATCTVQWLAEQIYQFTDKDKDNVAPPYNEGSNG[Hyp]-NH2 (disulfide 2-7 (inferred); ends not checked) [SEQ ID NO: 321],0.317
15,KCNTATCTVQWLAHQIYQFTDKDKDNVAPPTNVGSNG[Hyp]-NH2 (disulfide 2-7 (inferred); ends not checked) [SEQ ID NO: 330],0.008
16,KCNAATCTVQWLAEQIYQFTDKDKDNVAPPTNVGSNG[Hyp]-NH2 (disulfide 2-7 (inferred); ends not checked) [SEQ ID NO: 333],0.236
17,KCNTATCTVQWLAHQIYQFTDKAKDNVAPPTNVGSNG[Hyp]-NH2 (disulfide 2-7 (inferred); ends not checked) [SEQ ID NO: 320],0.009
18,KCNTATCTVQWLAHQIYQATDKDKDNVAPPTNVGSNG[Hyp]-NH2 (disulfide 2-7 (inferred); ends not checked) [SEQ ID NO: 338],0.089

# Target: hAM1R (human, UniProt Q16602)
# Experiment: cell-based or functional assay
row,Binder,hAM1R EC50 (cAMP) [nM]
1,GCRFGTCTVQWLAHQIYQFTDKDKDNVAPRSNVSPQGY [SEQ ID NO: 345],113
2,GCRTGTCTVQWLAHQIYQFTDKDKDNVAPRTNVGPNGY [SEQ ID NO: 332],> 5000
3,GCRFGTCTVQWLAHQIYQFTDKDKDNVAPRTKIGPNG[Hyp]-NH2 (disulfide 2-7 (inferred); ends not checked) [SEQ ID NO: 343],117
4,KCNTATCTVQWLAHQIYQFDKDKDNVAPPTNVGSNG[Hyp]-NH2 (disulfide 2-7 (inferred); ends not checked) [SEQ ID NO: 329],> 5000
5,GCRTGTCTVQWLAHQIYQFTDKDKDNVAPRTNIGPQG[Hyp]-NH2 (disulfide 2-7 (inferred); ends not checked) [SEQ ID NO: 341],> 5000
6,GCRTGTCTVQWLAHQIYQFTDKDKDNVAPRSKVGPQGY [SEQ ID NO: 344],> 5000
7,GCRTGTCTVQWLAHQIYQFTDKDKDNVAPRTNIGPNGY [SEQ ID NO: 348],> 5000
8,GCRTGTCTVQWLAHQIYQFTDKDKDNVAPRSNVGPQG[Hyp]-NH2 (disulfide 2-7 (inferred); ends not checked) [SEQ ID NO: 342],> 5000
9,KCNTATCTVQWLAHQIYQFTDKDKDNVAPRTEVGSNGY [SEQ ID NO: 334],> 5000
10,KCNTATCTVQRLAHQIYQFTDKDKDNVAPRTKVGSNGY [SEQ ID NO: 34],54.6
11,KCNTATCTVQWLAHQIYQFTDKDKDNVAPTNVGSNG[Hyp]-NH2 (disulfide 2-7 (inferred); ends not checked) [SEQ ID NO: 319],> 5000
12,KCNTATCTVQWLAHQIYQFTDKDKDAVAPPTNVGSNG[Hyp]-NH2 (disulfide 2-7 (inferred); ends not checked) [SEQ ID NO: 324],> 5000
13,GCRFGTCTVQWLAHQIYQFTDKDKDNVAPRTKIGPQG[Hyp]-NH2 (disulfide 2-7 (inferred); ends not checked) [SEQ ID NO: 336],738
14,KCNTATCTVQWLAEQIYQFTDKDKDNVAPPYNEGSNG[Hyp]-NH2 (disulfide 2-7 (inferred); ends not checked) [SEQ ID NO: 321],> 5000
15,KCNTATCTVQWLAHQIYQFTDKDKDNVAPPTNVGSNG[Hyp]-NH2 (disulfide 2-7 (inferred); ends not checked) [SEQ ID NO: 330],> 5000
16,KCNAATCTVQWLAEQIYQFTDKDKDNVAPPTNVGSNG[Hyp]-NH2 (disulfide 2-7 (inferred); ends not checked) [SEQ ID NO: 333],107
17,KCNTATCTVQWLAHQIYQFTDKAKDNVAPPTNVGSNG[Hyp]-NH2 (disulfide 2-7 (inferred); ends not checked) [SEQ ID NO: 320],> 5000
18,KCNTATCTVQWLAHQIYQATDKDKDNVAPPTNVGSNG[Hyp]-NH2 (disulfide 2-7 (inferred); ends not checked) [SEQ ID NO: 338],> 5000
